Measured values as given in patent publication US20220281976A1 (Alector, published 2022).

T1: mouse CD33 Fc fusion protein (mouse, UniProt Q63994 18-240, limits assumed)
T1 construct: also called mCD33-Fc
T1 sequence: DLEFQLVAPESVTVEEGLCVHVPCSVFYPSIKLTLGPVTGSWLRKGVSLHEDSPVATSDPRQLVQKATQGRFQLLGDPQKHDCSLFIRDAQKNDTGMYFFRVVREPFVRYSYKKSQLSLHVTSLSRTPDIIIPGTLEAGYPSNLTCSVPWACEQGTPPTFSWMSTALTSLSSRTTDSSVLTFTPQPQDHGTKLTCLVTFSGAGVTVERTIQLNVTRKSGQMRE

B1: C-47 (antibody, V domains shown)
VH: QVQLVESGGGVVQPGRSLRLSCAASGFTFSSYGMHWVRQAPGKGLEWVAVISYDGSNKYYADSVKGRFTISRDNSKNTLYLQMNSLRAEDTAVYYCARGPYYSYTDTAWFDPWGQGTLVTVSS
VL: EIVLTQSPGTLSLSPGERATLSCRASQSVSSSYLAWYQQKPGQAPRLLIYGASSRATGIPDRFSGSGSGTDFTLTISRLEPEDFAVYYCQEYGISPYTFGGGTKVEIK
notes: human IgG1
B2: C-50 (antibody, V domains shown)
VH: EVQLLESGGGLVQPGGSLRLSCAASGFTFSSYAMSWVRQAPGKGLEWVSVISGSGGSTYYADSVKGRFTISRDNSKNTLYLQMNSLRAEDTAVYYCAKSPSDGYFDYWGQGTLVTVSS
VL: DIQMTQSPSSVSASVGDRVTITCRASQGISSWLAWYQQKPGKAPKLLIYAASSLQSGVPSRFSGSGSGTDFTLTISSLQPEDFATYYCQQAFDFPITFGGGTKVEIK
notes: human IgG1
B3: C-34 (antibody, V domains shown)
VH: EVQLVESGGGLVQPGGSLRLSCAASGFTFSSYWMSWVRQAPGKGLEWVANINQDGSEKYYVDSVKGRFTISRDNAKNSLYLQMNSLRAEDTAVYYCARDHGATGPDFDLWGRGTLVTVSS
VL: DIQMTQSPSSLSASVGDRVTITCRASQSISSYLNWYQQKPGKAPKLLIYGASSLQSGVPSRFSGSGSGTDFTLTISSLQPEDFATYYCQQQYLTPLTFGGGTKVEIK
notes: human IgG1
B4: C-51 (antibody, V domains shown)
VH: QLQLQESGPGLVKPSETLSLTCTVSGGSISSSSYYWGWIRQPPGKGLEWIGSIYYSGSTYYNPSLKSRVTISVDTSKNQFSLKLSSVTAADTAVYYCARGAPHDYGGGVGWFDPWGQGTTVTVSS
VL: DIQMTQSPSSVSASVGDRVTITCRASQGISSWLAWYQQKPGKAPKLLIYAASNLQSGVPSRFSGSGSGTDFTLTISSLQPEDFATYYCQQSRVFPWTFGGGTKVEIK
notes: human IgG1
B5: C-64 (antibody, V domains shown)
VH: QVQLVQSGAEVKKPGSSVKVSCKASGGTFSSLAISWVRQAPGQGLEWMGGIIPIFGTANYAQKFQGRVTITADESTSTAYMELSSLRSEDTAVYYCARGTFYSDELFDYWGQGTLVTVSS
VL: DIQMTQSPSSVSASVGDRVTITCRASQGISSWLAWYQQKPGKAPKLLIYAASSLQSGVPSRFSGSGSGTDFTLTISSLQPEDFATYYCQQENSYPLTFGGGTKVEIK
notes: human IgG1

Columns and labels:
[1] = target: T2, human CD33 Fc fusion protein (human, UniProt P20138 18-259); assay: ForteBio BLI or MSD-SET
T2 construct: also called hCD33-Fc; human CD33/Fc chimera (R&D Systems)

[2] = target: T3, human monomeric His tagged CD33 protein (human, UniProt P20138 18-259); assay: ForteBio BLI or MSD-SET
T3 construct: also called hCD33-His

[3] = target: T1, mouse CD33 Fc fusion protein; assay: ForteBio BLI or MSD-SET, IgG, avid;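 note: Anti-CD33 IgG affinity by BLI, IgG captured on AHQ sensors with antigen in solution and a one-to-one kinetic fit, or by MSD solution equilibrium titration with quadratic fit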
[4] = target: T2, human CD33 Fc fusion protein; assay: RBC adhesion to plate-bound CD33-Fc; antibody 0.5 ug/ml;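 note: Plate-coated CD33-Fc preincubated 1 h with antibody, then red blood cells added for 1 h at room temperature, adherent cells lysed and quantified via peroxidase activity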
[5] = target: T2, human CD33 Fc fusion protein; assay: RBC adhesion to plate-bound CD33-Fc; antibody 1.0 ug/ml;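 note: red blood cells adhering to plate-coated CD33-Fc after 1 h antibody pretreatment, then 1 h at room temperature, bound cells read as peroxidase activity after lysis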
[6] = target: T4, human CD33 (human, UniProt P20138 18-364); assay: cell-based or functional assay
[7] = target: T4, human CD33; assay: flow cytometry, human primary T cells;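 note: binding of anti-CD33 antibodies at 10 ug/ml to human primary T cells, 1 h on ice, detected with PE-labelled secondary antibody, read as flow cytometry MFI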
Method: (§1) Initial characterization of CD33 antibodies involved determining their ability to bind CD33 expressed on a CHO cell line, on human primary monocytes, human primary macrophages, human primary dendritic cells, and on human primary T cells. Cells were harvested, plated at 10⁶/ml in a 96 well plate, and incubated in 100 ul PBS containing 2% FBS, 2 mM EDTA and 10 ug/ml Mab and Fc blocking reagent for 1 hour in ice. Cells were washed twice and incubated in 100 ul PBS containing 2% FBS, 2 mM EDTA and 5 ug/ml PE-conjugated secondary antibody for 30 minutes on ice. Cells were washed twice in cold PBS and analyze by flow cytometry on a BD FACS Canto. Data analysis and calculation of MFI values was performed with FlowJo (TreeStar) software version 10.0.7.

[8] = target: T4, human CD33; assay: flow cytometry, human primary monocytes; design: reference not given here;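 note: binding of anti-CD33 antibodies at 10 ug/ml to human primary monocytes, 1 h on ice, detected by PE-labelled secondary antibody, flow cytometry readout as mean fluorescence intensity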
[9] = target: T4, human CD33; assay: flow cytometry, human primary macrophages;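 note: binding of CD33 antibodies at 10 µg/ml to human primary macrophages, 1 h on ice, detected with PE-labelled secondary antibody by flow cytometry, reported as MFI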
Method: as §1

[10] = target: T4, human CD33; assay: flow cytometry, human primary dendritic cells;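 note: binding of anti-CD33 antibodies (10 ug/ml, 1 h on ice) to human primary dendritic cells, detected with a PE-labelled secondary antibody, reported as flow cytometry MFI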
[11] = target: T1, mouse CD33 Fc fusion protein; assay: ForteBio BLI or MSD-SET
[12] = target: T2, human CD33 Fc fusion protein; assay: ForteBio BLI or MSD-SET, IgG, avid;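 note: Anti-CD33 IgG affinity by BLI, IgG captured on AHQ sensors with antigen in solution and a one-to-one kinetic fit, or by MSD solution equilibrium titration with quadratic fit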
[13] = target: T3, human monomeric His tagged CD33 protein; assay: ForteBio BLI or MSD-SET, IgG, monomeric antigen;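 note: BLI: antibodies captured on AHQ sensors, 100 nM antigen association 5 min, dissociation 5 min, 1:1 fit. MSD-SET: antigen fixed at 50 pM, antibody titrated, quadratic fit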

T2 sequence (P20138 18-259 limits assumed): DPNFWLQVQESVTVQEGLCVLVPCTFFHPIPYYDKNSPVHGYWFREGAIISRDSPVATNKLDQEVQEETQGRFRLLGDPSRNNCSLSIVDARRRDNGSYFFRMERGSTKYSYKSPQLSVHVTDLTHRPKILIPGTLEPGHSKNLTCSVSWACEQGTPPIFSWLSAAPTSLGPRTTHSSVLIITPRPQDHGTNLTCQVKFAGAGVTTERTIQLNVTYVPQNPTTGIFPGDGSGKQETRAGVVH
T3 sequence (P20138 18-259 limits assumed): as above
T4 sequence (P20138 18-364): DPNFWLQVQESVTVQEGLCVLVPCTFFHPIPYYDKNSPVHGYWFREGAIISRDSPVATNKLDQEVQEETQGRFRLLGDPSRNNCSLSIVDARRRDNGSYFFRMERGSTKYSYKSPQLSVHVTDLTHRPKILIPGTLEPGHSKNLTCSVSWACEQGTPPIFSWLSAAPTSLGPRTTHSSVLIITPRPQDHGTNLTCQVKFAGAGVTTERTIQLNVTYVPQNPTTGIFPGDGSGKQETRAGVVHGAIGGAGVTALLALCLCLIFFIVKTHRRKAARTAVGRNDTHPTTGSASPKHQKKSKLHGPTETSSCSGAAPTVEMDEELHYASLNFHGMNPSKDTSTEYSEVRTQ

| Binder | binding result [1] | binding result [2] | Kd [3] [nM] | Percent RBC Binding to CD33 [4] [%] | Percent RBC Binding to CD33 [5] [%] | Percent CD33 Surface Expression, DC % CD33 [6] [%] | Percent CD33 Surface Expression, Monocyte % CD33 [6] [%] | T cell MFI [7] | Monocyte MFI [8] | Macrophage MFI [9] | DC MFI [10] | Percent CD33 Surface Expression, Macrophage % CD33 [6] [%] | binding result [11] | Kd [12] [nM] | Kd [13] [nM] |
| --- | --- | --- | --- | --- | --- | --- | --- | --- | --- | --- | --- | --- | --- | --- | --- |
| B1 | no binding (tested: 100 nM) | no binding (tested: 100 nM) | 1.09 | 112 | 142 | – | – | – | – | – | – | – | – | – | – |
| B2 | no binding (tested: 100 nM) | no binding (tested: 100 nM) | 0.445 | 118 | 95.3 | 87 | 85.3 | 112 | 54 | 496 | 307 | – | – | – | – |
| B3 | – | – | – | 14.4 | 9.86 | 20.1 | 42.5 | 216 | 157 | 862 | 1440 | 38 | no binding (tested: 100 nM) | 1.21 | 4.44 |
| B4 | no binding (tested: 100 nM) | no binding (tested: 100 nM) | 2.72 | 96.6 | 129 | – | – | – | – | – | – | – | – | – | – |
| B5 | – | – | 25.8 | 93.5 | 90.4 | 31 | 29.5 | 188 | 188 | 1040 | 1300 | 40.5 | – | – | 7.1 |
